Measured values published in patent US20100092465A1, “TREATMENT OF GRAFT-VERSUS-HOST DISEASE” (priority 2006, published 2010).
pKd: −log10 of the molar value. “And” between values parts separate entries of the source, which are not always exact repeats. Equal entries are not always repeated. Each block holds one substance with its values, some of them ahead of it.

How the values were obtained:
[1] = target: IL-27 receptor on total human PBMCs (human) (UniProt Q6UWB1); test: cell-based or functional assay
IL-27 receptor on total human PBMCs (human), sequence (Q6UWB1 33-636, chain 1 of 2): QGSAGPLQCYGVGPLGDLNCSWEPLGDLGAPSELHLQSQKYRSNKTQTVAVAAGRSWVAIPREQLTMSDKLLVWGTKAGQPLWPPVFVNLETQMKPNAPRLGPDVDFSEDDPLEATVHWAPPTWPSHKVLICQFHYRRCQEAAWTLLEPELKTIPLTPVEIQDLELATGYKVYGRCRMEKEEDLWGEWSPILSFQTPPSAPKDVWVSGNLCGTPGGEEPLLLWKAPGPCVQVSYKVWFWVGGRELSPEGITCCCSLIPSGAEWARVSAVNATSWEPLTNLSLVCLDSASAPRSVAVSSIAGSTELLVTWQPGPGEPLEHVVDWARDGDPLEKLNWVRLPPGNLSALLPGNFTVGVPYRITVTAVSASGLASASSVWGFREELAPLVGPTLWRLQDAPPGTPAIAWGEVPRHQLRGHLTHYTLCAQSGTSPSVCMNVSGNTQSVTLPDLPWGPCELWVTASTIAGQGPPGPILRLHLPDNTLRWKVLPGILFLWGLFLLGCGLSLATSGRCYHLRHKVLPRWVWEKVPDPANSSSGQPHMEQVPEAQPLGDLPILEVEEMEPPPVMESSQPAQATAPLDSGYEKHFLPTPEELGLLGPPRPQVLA
IL-27 receptor on total human PBMCs (human), sequence (P40189 23-918, chain 2 of 2, further chain): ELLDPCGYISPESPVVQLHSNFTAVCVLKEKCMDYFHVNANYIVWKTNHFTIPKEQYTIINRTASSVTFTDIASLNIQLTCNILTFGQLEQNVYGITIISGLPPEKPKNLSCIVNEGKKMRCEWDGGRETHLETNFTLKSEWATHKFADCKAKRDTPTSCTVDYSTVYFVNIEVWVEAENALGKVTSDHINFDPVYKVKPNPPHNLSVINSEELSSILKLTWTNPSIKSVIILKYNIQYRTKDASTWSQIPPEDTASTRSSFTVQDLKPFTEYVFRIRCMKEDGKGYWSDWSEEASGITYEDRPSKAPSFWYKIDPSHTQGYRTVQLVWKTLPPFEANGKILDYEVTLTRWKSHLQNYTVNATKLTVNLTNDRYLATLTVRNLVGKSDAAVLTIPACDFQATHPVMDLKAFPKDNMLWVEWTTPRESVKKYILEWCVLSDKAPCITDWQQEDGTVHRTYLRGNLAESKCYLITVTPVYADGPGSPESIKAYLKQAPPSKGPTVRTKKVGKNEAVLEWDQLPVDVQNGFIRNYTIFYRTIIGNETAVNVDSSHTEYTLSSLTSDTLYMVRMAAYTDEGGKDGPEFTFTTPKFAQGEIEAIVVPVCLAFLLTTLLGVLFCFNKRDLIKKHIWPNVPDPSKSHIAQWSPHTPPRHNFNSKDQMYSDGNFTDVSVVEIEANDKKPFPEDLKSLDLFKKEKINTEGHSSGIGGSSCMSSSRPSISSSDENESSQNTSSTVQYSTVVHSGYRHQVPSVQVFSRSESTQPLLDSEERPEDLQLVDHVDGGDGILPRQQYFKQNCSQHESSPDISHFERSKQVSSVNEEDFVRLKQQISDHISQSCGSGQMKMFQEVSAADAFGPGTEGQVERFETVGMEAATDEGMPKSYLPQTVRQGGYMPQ

[2] = target: IL-27 receptor on mouse spleen cells (mouse) (UniProt O70394); test: cell-based or functional assay
IL-27 receptor on mouse spleen cells (mouse), sequence (O70394 25-623, chain 1 of 2): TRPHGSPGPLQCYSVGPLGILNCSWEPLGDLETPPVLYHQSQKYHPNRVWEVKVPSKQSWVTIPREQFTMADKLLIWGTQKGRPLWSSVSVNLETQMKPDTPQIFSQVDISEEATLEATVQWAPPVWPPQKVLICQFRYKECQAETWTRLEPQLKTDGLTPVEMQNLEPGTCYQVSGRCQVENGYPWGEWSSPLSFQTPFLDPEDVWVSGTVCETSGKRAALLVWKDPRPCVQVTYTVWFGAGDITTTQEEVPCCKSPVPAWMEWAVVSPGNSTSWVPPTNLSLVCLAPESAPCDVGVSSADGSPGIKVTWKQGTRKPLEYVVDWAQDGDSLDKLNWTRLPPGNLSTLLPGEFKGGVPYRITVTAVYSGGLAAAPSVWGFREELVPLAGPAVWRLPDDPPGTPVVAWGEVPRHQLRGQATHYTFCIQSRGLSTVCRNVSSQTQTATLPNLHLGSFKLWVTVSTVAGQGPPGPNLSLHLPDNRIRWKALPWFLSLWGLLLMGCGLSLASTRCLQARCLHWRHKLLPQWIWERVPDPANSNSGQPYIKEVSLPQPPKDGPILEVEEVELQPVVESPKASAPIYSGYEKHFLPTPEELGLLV
IL-27 receptor on mouse spleen cells (mouse), sequence (Q00560 23-917, chain 2 of 2, further chain): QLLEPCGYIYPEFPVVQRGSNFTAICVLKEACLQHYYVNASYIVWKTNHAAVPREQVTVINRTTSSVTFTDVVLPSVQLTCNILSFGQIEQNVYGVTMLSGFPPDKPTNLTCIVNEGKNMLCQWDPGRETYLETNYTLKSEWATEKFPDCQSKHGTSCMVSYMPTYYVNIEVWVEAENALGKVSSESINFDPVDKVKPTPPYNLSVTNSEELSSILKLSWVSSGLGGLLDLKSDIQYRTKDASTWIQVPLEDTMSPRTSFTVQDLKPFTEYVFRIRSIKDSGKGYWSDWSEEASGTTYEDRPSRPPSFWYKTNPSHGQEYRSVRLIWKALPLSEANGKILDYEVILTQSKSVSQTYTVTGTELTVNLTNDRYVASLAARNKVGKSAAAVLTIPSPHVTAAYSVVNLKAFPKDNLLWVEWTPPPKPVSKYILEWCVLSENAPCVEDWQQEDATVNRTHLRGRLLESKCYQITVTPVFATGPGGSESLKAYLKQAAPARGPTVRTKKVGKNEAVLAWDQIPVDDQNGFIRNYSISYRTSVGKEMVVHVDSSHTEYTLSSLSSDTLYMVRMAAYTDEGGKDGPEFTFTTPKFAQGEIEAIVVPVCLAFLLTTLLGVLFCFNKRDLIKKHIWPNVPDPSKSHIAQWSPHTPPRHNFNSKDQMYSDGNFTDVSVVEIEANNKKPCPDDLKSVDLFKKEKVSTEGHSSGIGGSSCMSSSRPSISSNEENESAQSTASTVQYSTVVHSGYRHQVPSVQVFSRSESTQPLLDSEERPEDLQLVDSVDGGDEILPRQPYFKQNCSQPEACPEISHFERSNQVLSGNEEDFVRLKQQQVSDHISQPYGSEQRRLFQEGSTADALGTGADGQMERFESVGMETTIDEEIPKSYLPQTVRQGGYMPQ

[3] = target: single-chain mouse IL-27 (FLAG tag, mouse EBI3, 17 amino acid linker, mouse IL-27 p28) (mouse) (UniProt O35228); test: cell-based or functional assay
[4] = target: single-chain human IL-27 (amino-terminal peptide tag, EBI3, polypeptide linker, IL-27 p28) (human) (UniProt Q14213); test: cell-based or functional assay
[5] = target: single-chain mouse IL-27 (FLAG tag, mouse EBI3, 17 amino acid linker, mouse IL-27 p28) (mouse) (UniProt O35228); test: SPR, BIACORE 3000; receptor captured by anti-mouse Fc antibody, ligand (lot A1418F) injected; 1:1 model with mass transport
[6] = target: single-chain human IL-27 (amino-terminal peptide tag, EBI3, polypeptide linker, IL-27 p28) (human) (UniProt Q14213); test: SPR, BIACORE 3000; receptor amine-coupled to the chip, ligand (A1534F) injected; 1:1 model with mass transport
[7] = target: single-chain mouse IL-27 (FLAG tag, mouse EBI3, 17 amino acid linker, mouse IL-27 p28) (mouse) (UniProt O35228); test: SPR, BIACORE 3000; receptor amine-coupled to the chip, ligand (A1426F) injected; 1:1 model with mass transport
[8] = target: IL-27 receptor (IL-27RA and gp130) on BHK-mIL-27R cells (mouse) (UniProt O70394); test: saturation binding of 125I-labeled ligand to BHK-mIL-27R cells; average of three studies
[9] = target: IL-27 receptor (IL-27RA and gp130) on BHK-mIL-27R cells (mouse) (UniProt O70394); test: saturation binding of 125I-labeled ligand to BHK-mIL-27R cells, 4 hours on ice, gamma counter

EC90 concentration, STAT3 phosphorylation (BIO-PLEX Phospho-Stat3 assay), total human PBMCs [1]: 2 nM | EC90 concentration, STAT3 phosphorylation (BIO-PLEX Phospho-Stat3 assay), mouse spleens [2]: 2 nM
Substance: single-chain human IL-27 (amino-terminal peptide tag, EBI3, polypeptide linker, IL-27 p28) (from UniProt Q14213 21-229; Q8NEV9 29-243) (ligand)

IC50 (nM), phospho-STAT3 in mouse spleens, ligand at EC90 [3]: 0.18 nM | IC50 (nM), phospho-STAT3 in total human PBMCs, ligand at EC90 [3]: 4.83 nM | IL-2 concentration, 48 hr, mIL-27RA 5 ug/ml + IL-27 [3]: 4020 pg/mL | IL-2 concentration, 48 hr, mIL-27RA 10 ug/ml + IL-27 [3]: 5220 pg/mL | IL-2 concentration, 48 hr, mIL-27RA 10 ug/ml + IL-27 (second row) [3]: 4920 pg/mL | IL-2 concentration, 72 hr, mIL-27RA 5 ug/ml + IL-27 [3]: 5740 pg/mL | IL-2 concentration, 72 hr, mIL-27RA 10 ug/ml + IL-27 [3]: 6700 pg/mL | IL-2 concentration, 72 hr, mIL-27RA 10 ug/ml + IL-27 (second row) [3]: 12200 pg/mL | block of the ability of mouse IL-27 to inhibit IL-2 production by naive CD4 T cells [3]: 50% | IC50 (nM), phospho-STAT3 in mouse spleens, ligand at EC90 [4]: 9.3 nM | IC50 (nM), phospho-STAT3 in total human PBMCs, ligand at EC90 [4]: 1370 nM | koff [5]: 0.0012 s⁻¹ | kon [5]: 1e+07 M⁻¹ s⁻¹
Substance: IL27RAm(mFc1): extracellular domain of mouse IL27RA fused to a wild type BALB/c mouse gamma2a constant region Fc tag (from UniProt O70394 25-510) (Fc fusion)

koff [6]: 0.0019 s⁻¹ | kon [6]: 1e+07 M⁻¹ s⁻¹ | IC50 (nM), phospho-STAT3 in mouse spleens, ligand at EC90 [3]: 0.14 nM | IC50 (nM), phospho-STAT3 in total human PBMCs, ligand at EC90 [3]: 2.97 nM | IL-2 concentration, 48 hr, hIL-27RA 5 ug/ml + IL-27 [3]: 5780 pg/mL | IL-2 concentration, 48 hr, hIL-27RA 10 ug/ml + IL-27 [3]: 5770 pg/mL | IL-2 concentration, 48 hr, hIL-27RA 10 ug/ml + IL-27 (second row) [3]: 5330 pg/mL | IL-2 concentration, 72 hr, hIL-27RA 5 ug/ml + IL-27 [3]: 1870 pg/mL | IL-2 concentration, 72 hr, hIL-27RA 10 ug/ml + IL-27 [3]: 28600 pg/mL | IL-2 concentration, 72 hr, hIL-27RA 10 ug/ml + IL-27 (second row) [3]: 17500 pg/mL | block of the ability of mouse IL-27 to inhibit IL-2 production by naive CD4 T cells [3]: 50% | IC50 (nM), phospho-STAT3 in mouse spleens, ligand at EC90 [4]: 0.32 nM | IC50 (nM), phospho-STAT3 in total human PBMCs, ligand at EC90 [4]: 0.95 nM | koff [7]: 0.0018 s⁻¹ | kon [7]: 8.1e+06 M⁻¹ s⁻¹
Substance: human IL27RA-Fc5 fusion protein (Fc fusion)

pKd [8]: 8.94 | EC90 concentration, STAT3 phosphorylation (BIO-PLEX Phospho-Stat3 assay), total human PBMCs [1]: 2 nM | EC90 concentration, STAT3 phosphorylation (BIO-PLEX Phospho-Stat3 assay), mouse spleens [2]: 0.2 nM | pKd [9]: 9.05 and 8.87 and 8.94
Substance: single-chain mouse IL-27 (FLAG tag, mouse EBI3, 17 amino acid linker, mouse IL-27 p28) (from UniProt O35228 19-228; Q8K3I6 29-234) (ligand)
